The results in this text go back to publication PMC8729259 (RSC Chemical Biology, 2021).

In the test the target is T1, His-SUMO-tagged SARS-CoV-2 nsp14 N-terminal ExoN domain (residues 1 to 289) (SARS-CoV-2).
T1 chain: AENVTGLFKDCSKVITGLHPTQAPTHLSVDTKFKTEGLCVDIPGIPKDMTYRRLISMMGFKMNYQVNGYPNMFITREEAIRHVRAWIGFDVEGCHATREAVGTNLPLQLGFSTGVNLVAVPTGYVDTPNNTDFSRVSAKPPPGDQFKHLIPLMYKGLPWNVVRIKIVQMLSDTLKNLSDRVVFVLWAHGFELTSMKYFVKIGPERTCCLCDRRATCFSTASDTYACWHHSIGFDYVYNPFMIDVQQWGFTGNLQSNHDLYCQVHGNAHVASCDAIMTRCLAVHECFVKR
Nature of the test: MST. Conditions: both partners purified.

B1: SARS-CoV-2 non-structural protein 10 (nsp10), full-length, without affinity tag (natural protein)
chain: AGNATEVPANSTVLSFCAFAVDAAKAYKDYLASGGQPITNCVKMLCTHTGTGQAITVTPEANMDQESFGGASCCLYCRCHIDHPNPKGFCDLKGKYVQIPTTCANDPVGFTLKNTVCTVCGMWKGYGCSCDQLREPMLQ
Consider B1, for which binding was put at a Kd of 900 ± 300 nM.
